Laboratory results published in patent US12692310B2, “ASIC1 channel antagonist antibody” (ShanghaiTech University, priority 2019, dated 2026).
Like-named read-outs stand apart in the source and are kept apart here. No end group written: not given here.

T1: hASIC1a (Homo sapiens, UniProt P78348)
T1 construct: expressed in transfected cells
T1 sequence (P78348 1-528): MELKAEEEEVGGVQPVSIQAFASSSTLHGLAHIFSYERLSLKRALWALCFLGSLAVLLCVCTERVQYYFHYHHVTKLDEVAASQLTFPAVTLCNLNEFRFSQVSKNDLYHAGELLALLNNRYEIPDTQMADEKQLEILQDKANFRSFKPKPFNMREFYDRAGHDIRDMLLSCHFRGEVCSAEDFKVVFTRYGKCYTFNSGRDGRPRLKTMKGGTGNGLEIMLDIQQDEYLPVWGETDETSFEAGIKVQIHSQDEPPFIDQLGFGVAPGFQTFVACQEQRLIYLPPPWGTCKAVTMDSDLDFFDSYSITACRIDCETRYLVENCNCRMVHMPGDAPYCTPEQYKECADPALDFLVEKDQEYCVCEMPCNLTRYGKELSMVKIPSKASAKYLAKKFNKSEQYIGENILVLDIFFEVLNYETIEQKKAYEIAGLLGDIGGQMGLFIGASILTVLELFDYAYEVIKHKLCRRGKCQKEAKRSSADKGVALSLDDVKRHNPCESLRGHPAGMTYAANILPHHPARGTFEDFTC

T2: hASIC1a-eYFP (human, UniProt P78348 1-528)
T2 construct: whole, on cells; On CHO-K1 cells, stably (6H7) or transiently transfected; also called full-length hASIC1a (1-528 amino acids) fused with eYFP; CHO-K1/hASIC1a cells; not shown: C-terminal eYFP fusion
T2 sequence (looked up): T1 sequence (P78348 1-528)

B1: ASC02 (scFv, V domains shown)
VH: QVQLVQSGAEVKKPGASMKVSCTTSGYTVTGYYIHWLRQAPGQGFEWMGWINPNLGVTNYAQKFQGRVSMTRDPSIKTAYLELSGLRSDDTAMYYCARASTGGIFYDYWGQGTLVTVSS
VL: NFMLTQPHSMSESPGKTVTISCTRSSGNIASNYVQWYQQRPGSSPTTVIYDDNQRPSGVPDRFSGSIDSISNSASLTISGLKTEDEADYYCQSYDSSSVIFGGGTKLTVLG
notes: also called ASC02 scFv; ASC02 (scFv format)
B2: venom peptide PcTx1 fused with Fc (PcTx1-Fc) (Fc fusion)
chain: EDCIPKWKGCVNRHGDCCEGLECWKRRRSFEVCVPKTPKT
modifications: ends and bridges not checked; also: fused with Fc, isotype, linker and order not given here
B3: ASC03 (scFv, V domains shown)
VH: QVQLVESGAEVKKPGSSVKVSCKASGGNFRKYSISWVRQAPGQGLEWMGWISAYNGNTNYAQKLQGRVTMTTDTSTSTAYMELRSLRSDDTAVYYCARDFDPYYDAFDIWGQGTTVTVSS
VL: QSALTQPASVSGSPGQSITISCTGTSSDVGAYNYVSWYQQHPGKAPKLMIYDVSNRLSGVSNRFSGSKSGNRASLTISGLQAEDEADYYCSSYRSGNSLAFGGGTKLTVLG
notes: also called ASC03 scFv; ASC03 (scFv format)
B4: ASC04 (scFv, V domains shown)
VH: QVQLVQSGAEVKKPGSSVKVSCKASGGTFSTYAINWVRQAPGQGLEWMGWMNPNSGNTGYAQKFQGRVTMTRNTSISTAYMELSSLRSEDTAVYYCARYSYGMDVWGQGTTVTVSS
VL: QAVLTQPSSLSASPGASVSLTCTLRSGINVGAYRIYWYQQKPGSPPQFLLRYKSDSDKQQGSGVPSRFSGSRDASANAGILLISGLRSEDEADYYCAIWHSSAWVFGGGTKLTVLG
notes: also called ASC04 scFv; ASC04 (scFv format)

Assays:
hASIC1a = molecular target: T1, hASIC1a; experiment: Whole-cell patch clamp, acid-induced hASIC1a currents in stable CHO-K1 cells; assay type: cell-based
Protocol: Electrophysiological Experiments. The inward cellular ASIC1a current was recorded from a single cell using standard whole-cell recording techniques by a patch-clamp amplifier (Axon 200B; Axon Instruments). Membrane currents were sampled and analyzed using a Digidata 1320A interface and a personal computer with Clampex and Clampfit software (Version 9.0.1; Axon Instruments). For a typical experiment, the extracellular fluid (ECF) used contained 150 mM NaCl, 5 mM KCl, 10 mM HEPES, 10 mM D-glucose, 2 mM CaCl2, and 1.0 mM MgCl2, with the osmotic pressure in the range of 320-335 mOsm, and pH 7.4 adjusted with 5 M NaOH. Patch electrodes (4-6 MΩ) contained 30 mM NaCl, 120 mM KCl, 0.5 mM CaCl2, 1 mM MgCl2, 10 mM HEPES, 2 mM MgATP, and 5 mM EGTA (pH 7.2 adjusted with 5 M KOH) at 300 mOsm. The ASIC1a activating ECF is identical to the normal ECF, except that MES was used to replace HEPES to maintain the ECF at pH 6.0. A coverslip with discretely distributed individual CHO-ASIC1a stable cells (6H7) on the surface was placed into a recording chamber under a constant perfusion (~2-3 mL/min) generated by an ALA 8 channel perfusion system (ALA Scientific Instruments Inc.) mounted on an inverted microscope. After achieving the break-in (whole-cell) configuration, the cell was voltage clamped at a holding potential of −70 mV. The normal ECF (pH 7.4) was first perfused onto the patched cell, and then, the activating ECF of pH 6.0 was rapidly applied to elicit a maximum inward ASIC1a current as control current. When testing the inhibition effect of the antibody, ECFs of pH 7.4 containing different concentrations of ASC06-IgG1 were perfused from low to high concentration into the recording chamber for 10-15 min. To measure the inhibition of the current, the activating ECFs of pH 6.0 containing the corresponding concentrations of the testing antibodies were applied to the same patched 6H7 cell to generate the inward currents that can be normalized to the control current of the same cell. […] Data acquired from four to five cells were used for statistical calculation of inhibition effects.
The function of ASC06-IgG1 was characterized using electrophysiology approach. The effect of ASC06-IgG1 antibody on the acid-induced, hASIC1a-mediated electrical current in cells was analyzed. PcTx1 was used as a positive control. […] The amplitudes of the hASIC1a-mediated inward currents of the stable cells were recorded and quantitated in the absence and presence of ASC06-IgG1, with venom peptide PcTx1 (100 nM) used as positive control. […] Unlike the sustained inhibition with the antibody after washing, the inhibition with PcTx1 could be readily washed out within 5 minutes (FIG. 5C).

[1] = system: MCAO-induced ischemic stroke model mice; experiment: Middle cerebral artery occlusion (MCAO)-induced ischemic stroke model; assay type: in vivo, mouse; conditions: 4 μL i.c.v. 3 h after ischemia; 100 nM PcTx1 or 3.0 μg/μL ASC06-IgG1; 24 h after injection
Protocol: The Middle Cerebral Artery Occlusion (MCAO) Model. Animal care and the experimental protocols were approved by the Animal Ethics Committee of Shanghai Jiao Tong University School of Medicine, Shanghai, China. A transient ischemic stroke in the left brain hemisphere was established in male mice (C57 BL/6, 20-25 g) using middle cerebral artery occlusion (MCAO) for 1 h before reperfusion. Three hours after ischemia, a total of 4 μL of vehicle solution (PBS) in the absence or presence of neuroprotective agents) 100 nM PcTx1 or 3.0 μg/μL endotoxin-free ASC06-IgG1 ([…])) was administered by an intracerebroventricular (i.c.v.) injection on the contralateral side of the brain hemisphere. An irrelevant endotoxin-free antibody (3.0 μg/μL, […]) was used as isotype control. […] Mice were sacrificed 24 h after the i.c.v. injection. […] The infarct area was calculated by subtracting the normal area stained with TTC in the ischemic hemisphere from that of the nonischemic hemisphere. The infarct volume was calculated by summing infarction areas of all sections and multiplying by slice thickness.
To determine if the protective effect of antibody ASC06-IgG1 in vitro could be extended to pathologies in vivo, the middle cerebral artery occlusion (MCAO) model was used to study the antibody's neuroprotective effect. […] The infarct volume of the cortex and striatum were calculated 24 hours after the injection. […]

[2] = molecular target: truncated hASIC1a (amino acids 13-464) (human) (UniProt P78348); experiment: Octet, scFv format, ΔhASIC1a nanodiscs
[3] = molecular target: truncated hASIC1a (amino acids 13-464) (human) (UniProt P78348); experiment: Octet, scFv format at 500 nM, ΔhASIC1a nanodiscs
hASIC1a-eYFP = molecular target: T2, hASIC1a-eYFP; experiment: immunocytochemistry, confocal microscopy, CHO-K1 cells expressing hASIC1a-eYFP
[4] = molecular target: truncated hASIC1a (amino acids 13-464) (human) (UniProt P78348)

Molecule	inhibition of the acid-induced current, in words (hASIC1a; 100 nM, positive control)	time for inhibition to be washed out (hASIC1a; washout experiment) [min]	infarct volume (compared with the contralateral brain region) [1]	Kd [2] [nM]	Response [3]	binding result (hASIC1a-eYFP)	Kd [4] [nM]
Psalmotoxin-1 [PcTx1, reference compound]	nearly complete inhibition	≤ 5	about 17%				
B1				262	0.289	binds	
B2							1
B3				259	0.269	binds	
B4				20.8	0.995	binds	
